This is an account of results in patent publication US20150299255A1.

In the test the target is lectin SNA1 from Sambucus nigra (Sambucus nigra) (UniProt Q41358).
Chain of lectin SNA1 from Sambucus nigra (Sambucus nigra) (Q41358 29-289 limits assumed, chain 1 of 2): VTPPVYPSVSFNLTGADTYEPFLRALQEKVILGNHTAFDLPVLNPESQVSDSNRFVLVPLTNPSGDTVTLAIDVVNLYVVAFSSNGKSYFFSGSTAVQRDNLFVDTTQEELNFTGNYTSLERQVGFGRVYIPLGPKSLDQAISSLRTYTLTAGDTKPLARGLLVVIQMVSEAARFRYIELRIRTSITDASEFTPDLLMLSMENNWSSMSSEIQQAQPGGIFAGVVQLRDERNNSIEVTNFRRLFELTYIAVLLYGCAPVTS
Chain of lectin SNA1 from Sambucus nigra (Sambucus nigra) (Q41358 309-570 limits assumed, chain 2 of 2): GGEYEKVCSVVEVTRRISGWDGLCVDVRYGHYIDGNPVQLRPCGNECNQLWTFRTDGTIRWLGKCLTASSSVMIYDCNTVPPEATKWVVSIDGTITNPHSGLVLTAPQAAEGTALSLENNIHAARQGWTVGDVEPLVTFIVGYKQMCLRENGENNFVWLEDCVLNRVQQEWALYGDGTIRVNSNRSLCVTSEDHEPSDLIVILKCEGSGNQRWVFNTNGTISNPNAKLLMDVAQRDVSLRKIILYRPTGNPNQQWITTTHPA

Chain of fetuin (P12763 19-359): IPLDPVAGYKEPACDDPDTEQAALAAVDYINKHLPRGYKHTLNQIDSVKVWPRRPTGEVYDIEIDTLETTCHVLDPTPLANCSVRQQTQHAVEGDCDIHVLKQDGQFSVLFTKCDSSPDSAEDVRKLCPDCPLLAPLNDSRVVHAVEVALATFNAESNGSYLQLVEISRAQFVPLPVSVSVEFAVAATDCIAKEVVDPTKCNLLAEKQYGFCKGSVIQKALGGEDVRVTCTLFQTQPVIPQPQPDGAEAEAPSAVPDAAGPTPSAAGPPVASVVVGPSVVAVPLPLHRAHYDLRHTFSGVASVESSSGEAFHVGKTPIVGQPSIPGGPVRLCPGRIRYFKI

With fetuin (from UniProt P12763 19-359), the amount of fetuin giving essentially complete inhibition of SVH1C binding (pmoles per well) was determined as 500 and the percent inhibition of SVH1C binding at 100 pmoles fetuin per well stood at 50%.
